T1: AimR (Bacillus phage SPbeta, UniProt O64094 1-386)
T1 sequence: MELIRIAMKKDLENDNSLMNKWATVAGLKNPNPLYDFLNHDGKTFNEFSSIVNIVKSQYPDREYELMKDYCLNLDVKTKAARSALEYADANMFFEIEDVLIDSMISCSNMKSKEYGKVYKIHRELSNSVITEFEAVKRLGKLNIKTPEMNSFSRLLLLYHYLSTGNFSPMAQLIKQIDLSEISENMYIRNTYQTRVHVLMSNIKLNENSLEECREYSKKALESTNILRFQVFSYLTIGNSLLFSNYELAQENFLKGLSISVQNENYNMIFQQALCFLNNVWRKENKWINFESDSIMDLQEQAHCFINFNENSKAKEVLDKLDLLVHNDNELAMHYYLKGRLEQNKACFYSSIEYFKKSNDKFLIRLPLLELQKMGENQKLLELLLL

T2: AimR-V129C (Bacillus phage SPbeta, UniProt O64094 1-386, C71S;C107S;C213S;C275S;C304S;C347S;V129C)
T2 sequence: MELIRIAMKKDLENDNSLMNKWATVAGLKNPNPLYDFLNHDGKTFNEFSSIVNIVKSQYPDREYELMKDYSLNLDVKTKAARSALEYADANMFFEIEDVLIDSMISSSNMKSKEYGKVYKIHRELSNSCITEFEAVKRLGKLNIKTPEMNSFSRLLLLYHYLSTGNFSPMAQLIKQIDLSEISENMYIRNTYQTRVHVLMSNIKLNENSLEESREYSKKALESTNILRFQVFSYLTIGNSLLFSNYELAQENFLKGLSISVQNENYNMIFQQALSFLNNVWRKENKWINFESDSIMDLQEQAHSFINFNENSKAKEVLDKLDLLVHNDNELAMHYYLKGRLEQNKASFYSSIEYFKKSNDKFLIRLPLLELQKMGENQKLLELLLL

B1: AimR protein from the SPbeta phage, full length, wild type (natural protein, UniProt O64094 1-386, looked up)
chain: MELIRIAMKKDLENDNSLMNKWATVAGLKNPNPLYDFLNHDGKTFNEFSSIVNIVKSQYPDREYELMKDYCLNLDVKTKAARSALEYADANMFFEIEDVLIDSMISCSNMKSKEYGKVYKIHRELSNSVITEFEAVKRLGKLNIKTPEMNSFSRLLLLYHYLSTGNFSPMAQLIKQIDLSEISENMYIRNTYQTRVHVLMSNIKLNENSLEECREYSKKALESTNILRFQVFSYLTIGNSLLFSNYELAQENFLKGLSISVQNENYNMIFQQALCFLNNVWRKENKWINFESDSIMDLQEQAHCFINFNENSKAKEVLDKLDLLVHNDNELAMHYYLKGRLEQNKACFYSSIEYFKKSNDKFLIRLPLLELQKMGENQKLLELLLL
notes: AimR of Bacillus phage SPbeta, full length (DBD residues 1-48, CTD residues 49-386), codon-optimized cDNA in pET21b; also called SPbeta AimR; wild-type AimR; source: E. coli BL21 (DE3), purified (Ni-NTA, anion exchange Source 15Q, SEC Superdex-200)

Key:
[1] = target: the molecule itself; test: crystal structure; full-length AimR with the 31 bp DNA fragment and 5 mM MgCl2, 2.10 Å, PDB 6JG8
[2] = target: B1; test: crystal structure; AimR (~270 µM) incubated with arbitrium peptide GMPRGA (2.7 mM), PDB 6JG9; settings: both partners purified
[3] = target: the molecule itself; test: FRET or BRET; single-molecule FRET in solution between Alexa488 and Cy5 on Cys129 of the protomers, ~150 pM labelled AimR V129C, 25 °C, pH 7.4, 20 mM phosphate, 100 mM NaCl, 0.01% Tween 20; peptides titrated in
[4] = target: the molecule itself; test: cross-linking; disulfide cross-linking of Cys166 by o-phenanthroline copper complex, AimR-N166C ~1 mg/ml, room temperature 30 min, nonreducing SDS-PAGE; alone or with DNA, unrelated peptide or arbitrium peptide
[5] = target: T1, AimR; test: EMSA; 5 mM Mg2+; EMSA: 25 mM Tris-HCl pH 8.0, 150 mM NaCl, 5 mM MgCl2, 5 mM DTT, 0.1 mg/ml BSA, 10% glycerol, 50 ug/ml salmon sperm DNA, 4 C, 15 min; smFRET: 20 mM phosphate pH; settings: protein: recombinant; tags: C-terminal 8xHis; chain copies: 2; label: FAM
[6] = target: T2, AimR-V129C; test: smFRET; 1 uM DNA; EMSA: 25 mM Tris-HCl pH 8.0, 150 mM NaCl, 5 mM MgCl2, 5 mM DTT, 0.1 mg/ml BSA, 10% glycerol, 50 ug/ml salmon sperm DNA, 4 C, 15 min; smFRET: 20 mM phosphate pH; settings: protein: recombinant; tags: 6xHis removed by drICE; Alexa Fluor 488 and Cy5 on C129; chain copies: 2

Row | Binder | binding signal [5] | other results
1 | B1 |  | stoichiometry N [1]: 2
2 | GMPRGA (mature arbitrium hexapeptide of the SPbeta phage, cut from the precursor encoded by the aimP gene; also called arbitrium hexapeptide; GMPRGA peptide; source: synthetic peptide, bought: GLS Biochem) [arbitrium peptide GMPRGA] |  | binding result [2]: binds
3 | AimR-V129C (C71S/C107S/C213S/C275S/C304S/C347S/V129C), labelled with Alexa Fluor 488 and Cy5 (natural protein, SPbeta phage, UniProt O64094 1-386, looked up, Alexa Fluor 488 C5 maleimide or Cy5 maleimide conjugated to Cys129 (double-labeled protein fraction collected), AimR of Bacillus phage SPbeta, full length with six Cys-to-Ser changes and V129C, in pET15b; His tag removed with drICE as for the other mutant proteins; also called dye-labeled protein; source: E. coli BL21 (DE3), purified as the mutant proteins; dye-conjugated and purified on a Source-Q column) MELIRIAMKKDLENDNSLMNKWATVAGLKNPNPLYDFLNHDGKTFNEFSSIVNIVKSQYPDREYELMKDYSLNLDVKTKAARSALEYADANMFFEIEDVLIDSMISSSNMKSKEYGKVYKIHRELSNSCITEFEAVKRLGKLNIKTPEMNSFSRLLLLYHYLSTGNFSPMAQLIKQIDLSEISENMYIRNTYQTRVHVLMSNIKLNENSLEESREYSKKALESTNILRFQVFSYLTIGNSLLFSNYELAQENFLKGLSISVQNENYNMIFQQALSFLNNVWRKENKWINFESDSIMDLQEQAHSFINFNENSKAKEVLDKLDLLVHNDNELAMHYYLKGRLEQNKASFYSSIEYFKKSNDKFLIRLPLLELQKMGENQKLLELLLL |  | binding result [3]: binds
4 | AimR-N166C (C71S/C107S/C213S/C275S/C304S/C347S/N166C) (natural protein, SPbeta phage, UniProt O64094 1-386, looked up, AimR of Bacillus phage SPbeta, full length with six Cys-to-Ser changes and N166C, in pET15b; His tag removed with drICE as for the other mutant proteins; source: E. coli BL21 (DE3), purified as the mutant proteins (gel filtration)) MELIRIAMKKDLENDNSLMNKWATVAGLKNPNPLYDFLNHDGKTFNEFSSIVNIVKSQYPDREYELMKDYSLNLDVKTKAARSALEYADANMFFEIEDVLIDSMISSSNMKSKEYGKVYKIHRELSNSVITEFEAVKRLGKLNIKTPEMNSFSRLLLLYHYLSTGCFSPMAQLIKQIDLSEISENMYIRNTYQTRVHVLMSNIKLNENSLEESREYSKKALESTNILRFQVFSYLTIGNSLLFSNYELAQENFLKGLSISVQNENYNMIFQQALSFLNNVWRKENKWINFESDSIMDLQEQAHSFINFNENSKAKEVLDKLDLLVHNDNELAMHYYLKGRLEQNKASFYSSIEYFKKSNDKFLIRLPLLELQKMGENQKLLELLLL |  | stoichiometry N [4]: 2
5 | C2A (dsDNA) DNA 1: AATTAAATATTAGGTTTTAATAACATCTAGT DNA 2: ACTAGATGTTATTAAAACCTAATATTTAATT | ~8 fold lower binding than WT DNA | 
6 | 37 bp DNA (dsDNA) DNA 1: ATCACTTAAATATTAGGTTTTAATAACATCTAGTGAT DNA 2: ATCACTAGATGTTATTAAAACCTAATATTTAAGTGAT |  | binding result [6]: binds
7 | C2G (dsDNA) DNA 1: AGTTAAATATTAGGTTTTAATAACATCTAGT DNA 2: ACTAGATGTTATTAAAACCTAATATTTAACT | ~9 fold lower binding than WT DNA | 
8 | C2T (dsDNA) DNA 1: ATTTAAATATTAGGTTTTAATAACATCTAGT DNA 2: ACTAGATGTTATTAAAACCTAATATTTAAAT | ~42 fold lower binding than WT DNA | 
9 | A1T/T31'A (dsDNA) DNA 1: TCTTAAATATTAGGTTTTAATAACATCTAGT DNA 2: ACTAGATGTTATTAAAACCTAATATTTAAGA | ~7 fold lower affinity than WT DNA | 
10 | A1G/T31'C (dsDNA) DNA 1: GCTTAAATATTAGGTTTTAATAACATCTAGT DNA 2: ACTAGATGTTATTAAAACCTAATATTTAAGC | ~19 fold lower affinity than WT DNA | 

From publication PMC6536502, “Structural insights into DNA recognition by AimR of the arbitrium communication system in the SPbeta phage” (Cell Discovery, 2019)
